Measured values reported in paper doi:10.1101/2022.03.30.486377 (bioRxiv, 2022).

Legend:
NL63 S on 293T cells = NL63 S on 293T cells (Human coronavirus NL63 (HCoV-NL63)., UniProt Q6Q1S2); assay: flow cytometry on cells
[1] = target: SARS-CoV-2 Wuhan-Hu-1 S on 293T cells (SARS-CoV-2 Wuhan-Hu-1, UniProt P0DTC2); assay: flow cytometry on cells
229E S on 293T cells = 229E S on 293T cells (Human coronavirus 229E (HCoV-229E)., UniProt P15423); assay: flow cytometry on cells
[2] = target: HCoV-OC43 S protein (S1+S2 ECD) (Human coronavirus OC43 (HCoV-OC43)., UniProt P36334); assay: ELISA
[3] = target: HCoV-229E S protein (S1+S2 ECD) (HCoV-229E, strain not named (stand-in: …, UniProt P15423)); assay: ELISA
[4] = target: SARS-CoV-2 (2019-nCoV) S protein (S1+S2 ECD) (SARS-CoV-2 (2019-nCoV), UniProt P0DTC2); assay: ELISA
[5] = target: MERS-CoV S protein (S1+S2 ECD) (MERS-CoV; strain  in paper, …, UniProt K0BRG7); assay: ELISA
[6] = target: HCoV-NL63 S protein (S1+S2 ECD) (HCoV-NL63, strain not named (stand-in: …, UniProt Q6Q1S2)); assay: ELISA
[7] = target: T1, SARS-CoV-2 fusion peptide K811[…]825 (SARS-CoV-2); assay: ELISA
T1 chain: KPSKRSFIEDLLFNK

[8] = target: HCoV-HKU1 (isolate N5) S protein (S1+S2 ECD) (Human coronavirus HKU1 (isolate N5) …, UniProt Q0ZME7); assay: ELISA
[9] = target: T1, SARS-CoV-2 fusion peptide K811[…]825; assay: crystal structure

Measured: binding result

Chain of HCoV-229E S protein (S1+S2 ECD) (HCoV-229E, strain not named (P15423 whole entry, looked up, the tested form may be a part): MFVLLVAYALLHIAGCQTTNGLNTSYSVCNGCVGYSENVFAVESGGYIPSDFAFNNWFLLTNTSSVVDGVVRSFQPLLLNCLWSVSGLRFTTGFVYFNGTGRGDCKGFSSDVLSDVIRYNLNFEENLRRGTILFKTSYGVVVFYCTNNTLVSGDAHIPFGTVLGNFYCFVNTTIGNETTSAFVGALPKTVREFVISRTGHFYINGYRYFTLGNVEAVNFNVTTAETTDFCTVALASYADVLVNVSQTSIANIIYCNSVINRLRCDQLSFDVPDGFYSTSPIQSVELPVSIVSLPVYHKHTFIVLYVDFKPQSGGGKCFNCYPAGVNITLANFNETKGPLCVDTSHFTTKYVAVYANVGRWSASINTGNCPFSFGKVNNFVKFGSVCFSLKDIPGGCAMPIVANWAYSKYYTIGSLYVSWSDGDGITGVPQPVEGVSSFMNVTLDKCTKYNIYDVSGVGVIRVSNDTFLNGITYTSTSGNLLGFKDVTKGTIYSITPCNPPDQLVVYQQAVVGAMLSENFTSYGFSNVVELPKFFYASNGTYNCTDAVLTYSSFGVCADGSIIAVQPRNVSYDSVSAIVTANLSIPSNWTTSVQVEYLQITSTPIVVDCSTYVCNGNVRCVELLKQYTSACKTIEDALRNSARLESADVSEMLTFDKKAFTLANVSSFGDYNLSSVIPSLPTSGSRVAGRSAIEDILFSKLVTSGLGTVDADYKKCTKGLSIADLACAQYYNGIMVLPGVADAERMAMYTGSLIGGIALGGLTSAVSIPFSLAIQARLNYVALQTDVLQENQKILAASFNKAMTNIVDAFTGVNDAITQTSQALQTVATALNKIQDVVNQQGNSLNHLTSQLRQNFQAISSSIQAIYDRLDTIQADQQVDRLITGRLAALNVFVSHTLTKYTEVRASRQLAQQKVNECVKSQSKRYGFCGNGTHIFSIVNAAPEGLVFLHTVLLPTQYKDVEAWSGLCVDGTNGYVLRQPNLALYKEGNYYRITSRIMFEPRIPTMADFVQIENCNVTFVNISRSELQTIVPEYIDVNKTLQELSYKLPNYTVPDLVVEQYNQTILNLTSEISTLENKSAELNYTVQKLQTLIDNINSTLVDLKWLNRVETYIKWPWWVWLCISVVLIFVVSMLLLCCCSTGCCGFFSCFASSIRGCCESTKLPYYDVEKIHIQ
Chain of NL63 S on 293T cells (Q6Q1S2 19-1356): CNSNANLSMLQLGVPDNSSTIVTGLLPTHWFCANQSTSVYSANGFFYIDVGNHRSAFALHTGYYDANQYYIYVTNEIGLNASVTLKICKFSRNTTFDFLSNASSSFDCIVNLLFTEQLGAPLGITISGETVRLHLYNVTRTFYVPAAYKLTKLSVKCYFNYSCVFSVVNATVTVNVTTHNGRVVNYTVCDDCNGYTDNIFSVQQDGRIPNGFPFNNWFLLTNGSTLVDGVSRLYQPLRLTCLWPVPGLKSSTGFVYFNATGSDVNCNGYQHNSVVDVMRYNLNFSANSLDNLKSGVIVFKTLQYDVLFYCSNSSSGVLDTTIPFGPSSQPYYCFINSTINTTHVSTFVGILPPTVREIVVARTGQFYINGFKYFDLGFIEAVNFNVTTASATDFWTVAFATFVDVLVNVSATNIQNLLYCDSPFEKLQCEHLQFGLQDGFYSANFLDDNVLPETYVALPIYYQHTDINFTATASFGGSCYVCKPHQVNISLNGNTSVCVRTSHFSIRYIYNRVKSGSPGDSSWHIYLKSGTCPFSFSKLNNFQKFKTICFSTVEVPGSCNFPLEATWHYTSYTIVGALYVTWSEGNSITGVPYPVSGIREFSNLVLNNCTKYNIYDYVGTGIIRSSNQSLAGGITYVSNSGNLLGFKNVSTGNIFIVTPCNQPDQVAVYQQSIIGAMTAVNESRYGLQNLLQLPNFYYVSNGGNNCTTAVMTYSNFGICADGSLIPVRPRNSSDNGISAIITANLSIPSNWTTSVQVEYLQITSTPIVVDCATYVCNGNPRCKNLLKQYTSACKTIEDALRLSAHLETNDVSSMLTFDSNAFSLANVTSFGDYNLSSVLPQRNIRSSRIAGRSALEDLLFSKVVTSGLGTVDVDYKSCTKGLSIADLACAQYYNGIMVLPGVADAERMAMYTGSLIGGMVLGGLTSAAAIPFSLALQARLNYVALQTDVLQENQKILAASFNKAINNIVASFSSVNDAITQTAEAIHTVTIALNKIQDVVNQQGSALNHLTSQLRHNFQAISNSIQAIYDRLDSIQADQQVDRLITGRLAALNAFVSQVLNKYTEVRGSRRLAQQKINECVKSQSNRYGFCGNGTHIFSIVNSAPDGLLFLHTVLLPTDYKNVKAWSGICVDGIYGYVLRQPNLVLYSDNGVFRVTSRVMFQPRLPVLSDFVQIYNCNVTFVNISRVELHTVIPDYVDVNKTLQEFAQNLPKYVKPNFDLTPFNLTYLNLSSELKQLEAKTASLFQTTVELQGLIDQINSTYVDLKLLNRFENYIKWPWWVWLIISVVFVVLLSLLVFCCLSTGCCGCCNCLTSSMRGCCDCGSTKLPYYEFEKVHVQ
Chain of 229E S on 293T cells (P15423 16-1173): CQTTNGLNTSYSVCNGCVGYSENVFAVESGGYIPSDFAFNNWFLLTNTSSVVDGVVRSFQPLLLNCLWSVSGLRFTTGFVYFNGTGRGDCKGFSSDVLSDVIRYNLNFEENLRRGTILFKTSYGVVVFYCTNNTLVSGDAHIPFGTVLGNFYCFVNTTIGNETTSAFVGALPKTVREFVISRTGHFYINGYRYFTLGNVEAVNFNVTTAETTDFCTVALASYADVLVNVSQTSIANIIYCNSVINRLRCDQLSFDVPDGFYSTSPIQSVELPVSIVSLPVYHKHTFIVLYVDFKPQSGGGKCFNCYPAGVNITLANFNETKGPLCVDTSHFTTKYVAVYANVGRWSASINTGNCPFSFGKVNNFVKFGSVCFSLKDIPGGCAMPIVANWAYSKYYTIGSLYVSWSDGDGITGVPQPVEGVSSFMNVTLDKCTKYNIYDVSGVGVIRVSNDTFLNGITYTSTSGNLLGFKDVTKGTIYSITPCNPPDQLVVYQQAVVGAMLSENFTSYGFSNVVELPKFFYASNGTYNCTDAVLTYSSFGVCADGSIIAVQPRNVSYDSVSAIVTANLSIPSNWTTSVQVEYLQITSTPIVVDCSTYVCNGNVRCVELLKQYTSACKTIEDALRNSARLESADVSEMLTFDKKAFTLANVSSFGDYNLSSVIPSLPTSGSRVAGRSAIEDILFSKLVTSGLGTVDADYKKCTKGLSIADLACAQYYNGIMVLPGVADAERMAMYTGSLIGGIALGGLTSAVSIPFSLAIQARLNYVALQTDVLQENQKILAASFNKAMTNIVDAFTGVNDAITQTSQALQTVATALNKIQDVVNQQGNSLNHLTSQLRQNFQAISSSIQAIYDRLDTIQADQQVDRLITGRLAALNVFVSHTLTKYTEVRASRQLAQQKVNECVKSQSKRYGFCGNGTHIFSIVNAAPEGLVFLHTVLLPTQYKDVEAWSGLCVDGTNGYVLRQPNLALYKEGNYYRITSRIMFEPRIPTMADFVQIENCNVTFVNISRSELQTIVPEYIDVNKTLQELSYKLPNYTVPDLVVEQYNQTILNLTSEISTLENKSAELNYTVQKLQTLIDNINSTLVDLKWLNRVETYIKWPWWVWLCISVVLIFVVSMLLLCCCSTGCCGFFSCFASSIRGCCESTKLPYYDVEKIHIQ
Chain of HCoV-NL63 S protein (S1+S2 ECD) (HCoV-NL63, strain not named (Q6Q1S2 whole entry, looked up, the tested form may be a part): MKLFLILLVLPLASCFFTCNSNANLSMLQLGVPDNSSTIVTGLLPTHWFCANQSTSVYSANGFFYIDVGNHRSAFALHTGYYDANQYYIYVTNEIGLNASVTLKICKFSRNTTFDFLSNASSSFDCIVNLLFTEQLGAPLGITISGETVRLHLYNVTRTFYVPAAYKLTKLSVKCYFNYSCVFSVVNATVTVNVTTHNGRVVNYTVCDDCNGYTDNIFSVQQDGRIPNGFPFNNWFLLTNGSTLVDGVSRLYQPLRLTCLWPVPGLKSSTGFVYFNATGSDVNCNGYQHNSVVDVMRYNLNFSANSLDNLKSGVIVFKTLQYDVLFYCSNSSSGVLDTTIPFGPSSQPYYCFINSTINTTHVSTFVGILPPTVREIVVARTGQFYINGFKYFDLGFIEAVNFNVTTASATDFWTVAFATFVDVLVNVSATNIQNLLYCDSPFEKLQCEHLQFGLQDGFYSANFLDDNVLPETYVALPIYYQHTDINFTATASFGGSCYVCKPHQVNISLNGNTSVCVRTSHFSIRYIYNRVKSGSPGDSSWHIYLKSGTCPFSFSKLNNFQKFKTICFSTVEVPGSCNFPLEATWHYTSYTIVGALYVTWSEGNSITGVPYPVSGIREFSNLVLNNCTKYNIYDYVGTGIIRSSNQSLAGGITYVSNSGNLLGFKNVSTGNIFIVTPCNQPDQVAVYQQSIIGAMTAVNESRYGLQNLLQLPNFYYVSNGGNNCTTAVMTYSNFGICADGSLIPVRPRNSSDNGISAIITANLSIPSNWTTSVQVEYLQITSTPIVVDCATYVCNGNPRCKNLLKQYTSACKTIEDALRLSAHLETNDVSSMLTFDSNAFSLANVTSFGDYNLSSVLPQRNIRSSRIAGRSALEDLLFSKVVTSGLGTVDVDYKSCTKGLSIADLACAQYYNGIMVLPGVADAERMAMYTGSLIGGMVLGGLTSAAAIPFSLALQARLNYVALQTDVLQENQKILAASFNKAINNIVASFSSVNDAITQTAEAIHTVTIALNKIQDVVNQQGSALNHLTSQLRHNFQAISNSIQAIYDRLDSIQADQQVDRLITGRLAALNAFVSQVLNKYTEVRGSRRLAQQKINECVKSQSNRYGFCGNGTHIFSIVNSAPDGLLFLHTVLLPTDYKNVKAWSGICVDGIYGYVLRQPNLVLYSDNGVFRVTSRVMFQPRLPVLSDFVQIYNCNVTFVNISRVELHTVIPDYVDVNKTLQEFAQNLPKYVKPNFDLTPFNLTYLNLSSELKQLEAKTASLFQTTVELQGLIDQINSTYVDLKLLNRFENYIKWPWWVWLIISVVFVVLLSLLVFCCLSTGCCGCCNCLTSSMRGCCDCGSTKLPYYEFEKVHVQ

B1: C13B8 mAb (antibody, V domains shown)
VH: QVQLQESGPGLVQPSQTLTLTCTVSGDSISNEDYHWTWIRQHPGKGLEWMGYLQYSGNTNYNPSLKSRMTISVDTSKNQFSLRLNSVTAADTAVYFCATSIVLTGMSNKIQPFDYWGQGTLVTVSS
VL: SYELTQPPSVSVSPGQMARITCSGEALPKKYAYWYQQKGGQFPVLVIYKDTERPSGIPERFSGSSSGTIVTLTISGVQPEDEADYYCLSADTSGTWVFGGGTKLTVL
binds: NL63 S on 293T cells | [1] | 229E S on 293T cells | [2] | [3] | [4] | [5] | [6] | [7] | [8]

B2: C13B8 Fab (Fab, V domains shown)
VH: QVQLQESGPGLVQPSQTLTLTCTVSGDSISNEDYHWTWIRQHPGKGLEWMGYLQYSGNTNYNPSLKSRMTISVDTSKNQFSLRLNSVTAADTAVYFCATSIVLTGMSNKIQPFDYWGQGTLVTVSS
VL: SYELTQPPSVSVSPGQMARITCSGEALPKKYAYWYQQKGGQFPVLVIYKDTERPSGIPERFSGSSSGTIVTLTISGVQPEDEADYYCLSADTSGTWVFGGGTKLTVL
binds: [9]

B3: VP12E7 mAb (antibody, V domains shown)
VH: QVQLVQSGGGVVQPGESLRLSCSGSGFTFNNYIMHWVRQAPGQGLDYVSGIGSDGRNTNYGDSVKGRFTISRDNSKDTLYLQMTSLRAEDTAFYYCVKGLDVLRFLDLSTPSGERLDAFDIWGQGTMVTVSS
VL: DIVMTQSPSFLSASVGDRVTITCRASQGISNYLAWYQQKPGKAPHLLIYAASTLQSGVPSRFSGSGSGTEFTLTISSLQPEDFATYYCQQLNSYPLFTFGPGTKVDIE
binds: NL63 S on 293T cells | [1] | 229E S on 293T cells | [2] | [3] | [4] | [5] | [6] | [7] | [8]

B4: VP12E7 Fab (Fab, V domains shown)
VH: QVQLVQSGGGVVQPGESLRLSCSGSGFTFNNYIMHWVRQAPGQGLDYVSGIGSDGRNTNYGDSVKGRFTISRDNSKDTLYLQMTSLRAEDTAFYYCVKGLDVLRFLDLSTPSGERLDAFDIWGQGTMVTVSS
VL: DIVMTQSPSFLSASVGDRVTITCRASQGISNYLAWYQQKPGKAPHLLIYAASTLQSGVPSRFSGSGSGTEFTLTISSLQPEDFATYYCQQLNSYPLFTFGPGTKVDIE
binds: [9]

B5: C77G12 mAb (antibody, V domains shown)
VH: EVQLVESGGGVVQPGRSLRISCAVSGFTFGSYAMHWVRQAPGKGLEWVGVMSSDGHNEYYADSVKGRFTISRDNSRNKLYLEMNNLRVDDTAVFYCARGSDYVDDSPPLHYWGQGTLVTVSS
VL: DIQLTQSPSSLSASIGDRVTITCRASQDIANKLAWFQQAPGKAPKSLIYAASRLQSGVPSQFSGSGSGTDFTLTIESLQAGDFATYFCQQYDSFPFTFGPGTKVDVK
binds: NL63 S on 293T cells | [1] | 229E S on 293T cells | [2] | [3] | [4] | [5] | [6] | [7] | [8]

B6: C77G12 Fab (Fab, V domains shown)
VH: EVQLVESGGGVVQPGRSLRISCAVSGFTFGSYAMHWVRQAPGKGLEWVGVMSSDGHNEYYADSVKGRFTISRDNSRNKLYLEMNNLRVDDTAVFYCARGSDYVDDSPPLHYWGQGTLVTVSS
VL: DIQLTQSPSSLSASIGDRVTITCRASQDIANKLAWFQQAPGKAPKSLIYAASRLQSGVPSQFSGSGSGTDFTLTIESLQAGDFATYFCQQYDSFPFTFGPGTKVDVK
binds: [9]

B7: VN01H1 mAb (antibody, V domains shown)
VH: EVQLVESGGGLVLPGGSLRLSCSASGFTFSDFSMHWVRQSPGKGLEYVSAITSSGSSTYYPDSVKGRFTISRDNSKNTLYLQMGSLRVEDTAVYWCVKNSDVFRFPHLYFDVWGRGTLVTVSS
VL: not shown
binds: NL63 S on 293T cells | [1] | 229E S on 293T cells | [2] | [3] | [4] | [5] | [6] | [7] | [8]

B8: VN01H1 Fab (Fab, V domains shown)
VH: EVQLVESGGGLVLPGGSLRLSCSASGFTFSDFSMHWVRQSPGKGLEYVSAITSSGSSTYYPDSVKGRFTISRDNSKNTLYLQMGSLRVEDTAVYWCVKNSDVFRFPHLYFDVWGRGTLVTVSS
VL: not shown
binds: [9]

B9: C13C9 mAb (antibody, V domains shown)
VH: EVQLVQSGPEVKKPGTSARVSCKASGFTSKNTALQWVRQARGQPLEWMGWIDISNYITNYAQKFRGRLTITWDLSASMAYMELSSLRSEDTAVYYCAAVGKDDDVLTGGNKYFDHWGQGTLVTVSS
VL: SYELTQPPSVSVSPGQTARITCSGDALPKKYAYWYQQKSGQAPVLVIHEDDKRPSGIPGRFSASSSGTTATLTISGAQVEDEADYYCYSTDTNDNHAFGSGTKLTVL
binds: NL63 S on 293T cells | [1] | 229E S on 293T cells | [2] | [3] | [4] | [5] | [6] | [7] | [8]

B10: C13C9 Fab (Fab, V domains shown)
VH: EVQLVQSGPEVKKPGTSARVSCKASGFTSKNTALQWVRQARGQPLEWMGWIDISNYITNYAQKFRGRLTITWDLSASMAYMELSSLRSEDTAVYYCAAVGKDDDVLTGGNKYFDHWGQGTLVTVSS
VL: SYELTQPPSVSVSPGQTARITCSGDALPKKYAYWYQQKSGQAPVLVIHEDDKRPSGIPGRFSASSSGTTATLTISGAQVEDEADYYCYSTDTNDNHAFGSGTKLTVL
binds: [9]
